# Measured values taken from the nanobody polyreactivity screen of Harvey et al. (2022).
# Test: yeast display, Sf9 membrane polyspecificity reagent, FACS + sequencing; frameworks hold sequencing errors
# Outline: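 A synthetic nanobody library was expressed on Saccharomyces cerevisiae BJ5465 by galactose induction for 36–48 hours. The library was stained for 1 hour at 4 °C with 10% biotinylated, detergent-solubilized Sf9 membrane reagent and enriched with streptavidin microbeads before FACS. Low and high (top ~1%) gates were set on anti-HA fluorescence for expression and streptavidin fluorescence for reagent binding, and each polyreactivity label reflects the gate of origin.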
row,Sequence,polyreactivity (PSR sort gate)
1,QVQLVESGGGLVQAGGSLRLSCAASGLTFAYYDMGWYRPAPGKERELVAAITSGGTTNYADSVKGRFTISRDNAKNTVYLQMNSQKPEDTADYYCAADRYYWGRYTLNYWGQGTQVTVSS,low polyreactivity
2,QVQLVESGGGLVQAGGSLRLSCAASGLTFDDYAMGWYRPAPWKEREFVATITLRGGSTYYADSVKGRFTISRDNAKNTVYLQLNSLKPEDTAVYYCNTDLGYSLEWDYDYWGQGTQVTVSS,low polyreactivity
3,QVQLVESGGGLVQAGGSLRLSCAASGLTFDDYAMGWYRQAPGKERELVAAINWSGSNTYYADSVKGRFTISRDNAKNTVYLQMNSLKPEDTAVYYCATYSRIFKWEYYYWGQGTQVTVSS,high polyreactivity
4,QVQLVESGGGLVQAGGSLRLSCAASGLTFDKNVMGWYRQAHGKERELVAAISRSGGTTYYADSVKGRFTISRDNAKYTVYLQMNSLKPEDTAVYYCAKRAWTGYGYYYWGQGTQVTVSS,high polyreactivity
5,QVQLVESGGGLVQAGGSLRLSCAASGLTFDLYNMGVYRKAPGKERELVAAISLSGGSTYYADSVKGRFTISRDNAKNTVYLQMNILKPDYTAVYYCAAAHSSSVIVEYDYWGQGTQVTVSS,low polyreactivity
6,QVQLVESGGGLVQAGGSLRLSCAASGLTFDSNAMGWYRQAPGKERELVAAISGSVGSTYYADSVKGRFTISRDNAKNTVYLQMNSLKPEDTAVYYCNASSVDKGYDYWGQGTQVTVSS,low polyreactivity
7,QVQLVESGGGLVQAGGSLRLSCAASGLTFDVYTMGWYRQAPGKERELVATISETYYADSVKGRFTISRDNAKNTVYLQMNSLKPEDTAVYYCAANGFKAQYRDIVYDYGYWGQGTQVTVSS,low polyreactivity
8,QVQLVESGGGLVQAGGSLRLSCAASGLTFDYYAMGWYRQAPGKERELVAVISRVGSTYYADSVKGRFTISRDNAKNTVYLQINSLKPEDTAVYYCAADLWHSYQDMYYWGQGTQVTVSS,low polyreactivity
9,QVQLVESGGGLVQAGGSLRLSCAASGLTFERYAMGWYRQAPGKERELVAAISIRGGSTYYADSVKGRFTISRDNAKNTVYLQMNSLKPEDTAVYYCNAESFSFYPSWHEYDYWGQGTQVTVSS,low polyreactivity
10,QVQLVESGGGLVQAGGSLRLSCAASGLTFEVYAMGWYRQARGKERELVAAISSGGGATYYADSVKGRFTISRDNAKNTVYLQMNSLKPEDTAVYYCAAVDPYERYVYWGQGTQVTVSS,low polyreactivity
11,QVQLVESGGGLVQAGGSLRLSCAASGLTFEYNAMGWYRQAPGKERELVATISNGGITSYADSVKGRFTISRDNAKNTVYLQMNSLKPEDTAVYYCAASYADSPTTDQLWLEYDSWGQGTQVTVSS,low polyreactivity
12,QVQLVESGGGLVQAGGSLRLSCAASGLTFFGNAMGWYRQAPGKERELVATISSGGGTSYADSVKGRFTISRDNAKNTVYLQMNSLKPEDTAVYYCAADIVEEFDYWGQGTQVTVSS,low polyreactivity
13,QVQLVESGGGLVQAGGSLRLSCAASGLTFFGYTMGWYRQAPGKEREFVADITWSGGSTYYADSVKGRFTISRDNAKNTVYLQMNSLKPEVTAVYYCAVAPPNWDPFVDDTYLMDYWGQGTQVTLSS,low polyreactivity
14,QVQLVESGGGLVQAGGSLRLSCAASGLTFFWNAMGWYRQAPGKERELVAAISYSGGSTSYADSVKGRFTISRDNAKNSVYLQMNSLKPEDTAVYYCAAEYWYGPSKGDYWGQGTQVTVSS,high polyreactivity
15,QVQLVESGGGLVQAGGSLRLSCAASGLTFGANDMGWYRQAPGKERELVAAIDWSGGSTFYADSVKGRFTISRDNAKNTVYLQMNSLKPEDTAVYYCAALGFGYPYPEYDYWGQGTQVTVSS,low polyreactivity
16,QVQLVESGGGLVQAGGSLRLSCAASGLTFGDYSMGWYRQAPGKERELVAAITWSGASTYYADSVKGRFTISRDNGMNTVYLQMNSLKPEDTAVYYCAAERTPSYRAYDYWGQGTQVTVSS,low polyreactivity
17,QVQLVESGGGLVQAGGSLRLSCAASGLTFGDYVMGWYRQAPGKERELVATITSDGGTTYADSVKGRFTISRDNAKNTVYLQMNSLKPEVTAVYYCYADAVVDNYVGFSAAGFDYWGQGTQVTVSS,low polyreactivity
